In patent publication US20090060920A1 (Eli Lilly, published 2009):

B1: Fab 5611 (Fab, V domains shown)
VH: QVQLQQSEAELVRPGSSVKISCKASGYAFSNYWMNWVKQRPGQGLEWIGQIYPGDGDTKYNGKFKGKATLTADKSSSSAYMQLSSLTSEDSAVYFCVITTVVGGDSDVWGAGTTVTVSS
VL: DLVLTQSPASLAVSLGQRATISCRASKSVSTSGYSYMHWYQQKPGQPPKLLIYLASNLESGVPARFSGSGSGTDFTLNIHPVEEEDAATYYCQHSRELPYTFGGGTKLEIKR
notes: Murine Fab from an Omniclonal library of immunised C57Bl6 mice
B2: E8 mouse IgG1 monoclonal antibody (antibody, V domains shown)
VH: B1 VH
VL: B1 VL
notes: domain: constant domain of mouse IgG1; also called E8 antibody; E8 mouse IgG1 mAb
B3: 4-28 (cys) ghrelin fragment (peptide)
peptide: FLSPEHQRVQQRKESKKPPAKLQPRC
B4: 9-28 ghrelin fragment (peptide)
peptide: HQRVQQRKESKKPPAKLQPR

What was measured:
desacyl human ghrelin [1] = target: T1, desacyl human ghrelin (human); assay: SPR (BIAcore 2000), Fab captured by goat anti-mouse kappa, ghrelin in solution, 25 C
T1 construct: also called desacyl ghrelin; 1-28 desacyl ghrelin
Method: (§1) Except where noted, all reagents and materials are purchased from BIAcore® AB (Upsala, Sweden). All measurements are performed at 25° C. Samples containing rat or human desacyl ghrelin are dissolved in HBS-EP buffer (150 mM sodium chloride, 3 mM EDTA, 0.005% (w/v) surfactant P-20, and 10 mM HEPES, pH 7.4). A capture antibody, goat anti-mouse Kappa (Southern Biotechnology, Inc), is immobilized onto flow cells using amine-coupling chemistry. Flow cells (1-4) are activated for 7 minutes with a 1:1 mixture of 0.1 M N-hydroxysuccinimide and 0.1 M 3-(N,N-dimethylamino)propyl-N-ethylcarbodiimide at a flow rate of 10 μl/min. Goat anti-mouse Kappa (30 μg/mL in 10 mM sodium acetate, pH 4.5) is manually injected over all 4 flow cells at a flow rate of 10 μL/min. The surface density is monitored and additional goat anti-mouse Kappa is injected if needed to individual cells until all flow cells reach a surface density of 4500-5000 response units (RU). Surfaces are blocked with a 7 minute injection of 1 M ethanolamine-HCl, pH 8.5 (10 μL/min). […]
(§2) Collection of kinetic binding data is performed at maximum flow rate (100 μL/min) and a low surface density to minimize mass transport effects. […] Signal is monitored as flow cell 2 minus flow cell 1, flow cell 3 minus flow cell 1 and flow cell 4 minus flow cell 1. […]

9-28 ghrelin fragment = target: B4; assay: competition ELISA on coated desacyl ghrelin, Fab at 10 nM
Method: (§3) (450-655061) by adding 60 uL of a 0.4 μg/ml (in H₂O) solution to each well. The assay plate is placed in a dry 37° C. incubator overnight. The next day, the assay plate is washed (wash buffer: 0.1% Tween 20, Tris-buffered saline (TBS)), and blocked with casein/PBS (Pierce 37528).
(§4) “2-28 acyl ghrelin” and “3-28 acyl ghrelin” in FIG. 1 refer to acyl ghrelins (SEQ ID NO: 17) missing the first one or two amino acids at the N-terminal end of the molecule, respectively. In FIG. 2, “1-8 (cys) desacyl” refers to a desacyl ghrelin fragment consisting of amino acids 1-8 of SEQ ID NO: 17, with an additional cysteine residue at the C-terminus. “4-28 (cys)” refers to a ghrelin fragment consisting of amino acids 4-28, also with an additional cysteine residue at the C-terminus. “9-28” refers to a ghrelin fragment consisting of amino acids 9-28 of SEQ ID NO: 17. Dilutions of the ghrelin, ghrelin analogs, and Fab are made in casein/PBS. These mixtures are incubated in a separate plate for 1 hour at room temperature.
(§5) The blocking solution is removed from the assay plate and 50 uL of the ghrelin/Fab mixture are added to the assay plate in duplicate. This is allowed to sit for 30 minutes at room temperature. […] The reaction is stopped with 100 uL of 1 N HCl, and the absorbance of the wells is read at 490 nm (Molecular Device SpectraMax250).

[2] = target: B3; assay: as above
Method: as §3, §4, §5

desacyl human ghrelin [3] = target: T1, desacyl human ghrelin; assay: SPR (BIAcore 2000), antibody captured by goat anti-mouse kappa, ghrelin in solution, 25 C
Method: as §1, §2

Fab 5611 = target: B1; assay: competition ELISA: peptide preincubated with 10 nM Fab 5611, mixture added to a plate coated with desacyl ghrelin, bound Fab detected with anti-mouse kappa-HRP, A490
Method: as §3, §4, §5

What does the source list for B1?
Kd (desacyl human ghrelin [1]): 0.138 nM; binding result (9-28 ghrelin fragment): no binding (tested: at the concentrations tested); binding result [2]: no binding (tested: at the concentrations tested)

With B2 as the binder, how does the Kd (desacyl human ghrelin [3]) read?
Its Kd is 0.226 nM.

Does B3 bind (Fab 5611)?
Result: no binding (tested: 1000 nM)

Does B4 bind (Fab 5611)?
Result: no binding (tested: 1000 nM)
